{
  "source": "patent US20220185907A1",
  "key": {"[1]": {"biological_target": "CD38 on cells (Raji, Daudi, REH, CD38-transfected HEK293) (human) (UniProt P28907)", "experiment": "flow cytometry on Raji cells (express CD19 and CD38)"}, "[2]": {"biological_target": "CD38 on cells (Raji, Daudi, REH, CD38-transfected HEK293) (human) (UniProt P28907)", "experiment": "flow cytometry on Raji cells; top asymptote fixed at about the maximum response of Darzalex"}, "[3]": {"biological_target": "CD38 on cells (Raji, Daudi, REH, CD38-transfected HEK293) (human) (UniProt P28907)", "experiment": "flow cytometry on Raji cells (express CD19 and CD38), 11 concentrations from 30 ug/mL"}},
  "data": [
    {"substance": "Darzalex® (CD38 control) (antibody)", "values": [
      {"measurement": "EC50", "setting": "[1]", "result": 1.27, "unit": "nM"},
      {"measurement": "Adjusted EC50", "setting": "[2]", "result": 1.27, "unit": "nM"},
      {"measurement": "EC50", "setting": "[3]", "result": 0.195, "unit": "µg/mL"},
      {"measurement": "Max MFI", "setting": "[3]", "result": "4.02e+06", "unit": "MFI"}
    ]}
  ]
}
